{"source": "paper PMC6018948", "key": {"[1]": {"molecular_target": "T1, ARR10 (UniProt O49397 1-552)", "T1 sequence": "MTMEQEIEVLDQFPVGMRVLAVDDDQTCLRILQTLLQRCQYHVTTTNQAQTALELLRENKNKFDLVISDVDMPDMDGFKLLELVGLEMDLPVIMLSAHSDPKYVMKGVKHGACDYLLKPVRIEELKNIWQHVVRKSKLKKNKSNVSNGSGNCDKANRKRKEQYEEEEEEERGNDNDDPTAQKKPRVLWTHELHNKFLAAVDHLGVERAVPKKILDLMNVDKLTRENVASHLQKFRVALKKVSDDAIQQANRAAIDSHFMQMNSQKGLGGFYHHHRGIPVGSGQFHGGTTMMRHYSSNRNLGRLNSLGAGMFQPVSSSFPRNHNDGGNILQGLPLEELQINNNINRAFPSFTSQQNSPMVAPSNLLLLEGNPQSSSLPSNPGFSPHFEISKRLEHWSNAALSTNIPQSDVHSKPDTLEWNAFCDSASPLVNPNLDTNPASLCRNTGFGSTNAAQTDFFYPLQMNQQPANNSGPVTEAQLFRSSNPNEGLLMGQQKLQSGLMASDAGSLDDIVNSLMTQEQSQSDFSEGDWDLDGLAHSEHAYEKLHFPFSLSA", "assay": "competition"}, "[2]": {"molecular_target": "T2, ARR1 (UniProt Q940D0 1-690)", "T2 sequence": "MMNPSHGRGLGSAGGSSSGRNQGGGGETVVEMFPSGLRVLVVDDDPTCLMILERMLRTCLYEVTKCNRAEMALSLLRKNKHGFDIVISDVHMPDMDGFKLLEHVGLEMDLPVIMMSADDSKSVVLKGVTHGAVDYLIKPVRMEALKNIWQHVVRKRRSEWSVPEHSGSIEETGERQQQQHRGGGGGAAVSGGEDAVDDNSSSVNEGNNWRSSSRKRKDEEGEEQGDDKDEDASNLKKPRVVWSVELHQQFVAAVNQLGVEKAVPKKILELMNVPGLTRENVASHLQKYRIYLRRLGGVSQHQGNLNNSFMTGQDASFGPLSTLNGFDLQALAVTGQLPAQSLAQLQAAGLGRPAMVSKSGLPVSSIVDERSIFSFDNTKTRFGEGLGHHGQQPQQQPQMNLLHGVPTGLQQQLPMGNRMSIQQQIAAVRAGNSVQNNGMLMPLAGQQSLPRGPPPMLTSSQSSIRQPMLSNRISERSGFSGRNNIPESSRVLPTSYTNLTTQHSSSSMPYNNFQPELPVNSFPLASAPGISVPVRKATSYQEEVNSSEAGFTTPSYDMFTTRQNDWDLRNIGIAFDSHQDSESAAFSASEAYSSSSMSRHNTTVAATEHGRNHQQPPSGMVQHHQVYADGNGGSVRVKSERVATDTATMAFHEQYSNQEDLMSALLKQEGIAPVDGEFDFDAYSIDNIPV", "assay": "competition"}}}
{"binder": "AG mutated competitor (dsDNA) DNA 1: TTTAAAGCAATGGTTACAATTTTAATACTATCAAATGTCTATTGCTTTTA DNA 2: TAAAAGCAATAGACATTTGATAGTATTAAAATTGTAACCATTGCTTTAAA", "values": [{"measurement": "binding result", "setting": "[1]", "result": "no binding"}, {"measurement": "binding result", "setting": "[2]", "result": "no binding"}]}
